Measured values reported in patent US20210161894A1, “Compositions and Methods for Modulating Liver Endothelial Cell Fenestrations” (priority 2017, published 2021).
Entries after “also recorded” stand apart in the source; their conditions may differ.

Tests used:
[1] = tested on: fenestrations; settings: young (7 month) and old (24 month) mice; cited from earlier work
[2] = tested on: isolated LSECs (liver sinusoidal endothelial cells); assay: SEM of fenestrations in isolated LSECs from young and old mice after 30 min drug treatment (second Example 7); format: cell-based; settings: for Diameter / Frequency / Porosity: 30 min; for effect on porosity and fenestration frequency (summary in words): young and old LSECs
[3] = tested on: LSEC fenestrations; assay: SEM of LSEC fenestrations after drug treatments (Example 2, FIGS. 1-6); format: cell-based, mice; settings: for sieve plates and fenestration density on SEM images: young and old mice; for change in fenestration diameter: TRAIL 1 μg/ml
In short: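 Liver cells from young (3-4) and old (20-24 months) C57B16 mice, n=3 each, incubated 30 mins at 37° C, 5% CO2 in RPMI with or without drug; livers perfusion-fixed in 1% glutaraldehyde/4% para-formaldehyde. Blinded SEM at 10,000×; values are mean±SD of 8 images, 616-3312 fenestrations per treatment.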

[4] = tested on: fenestrations; settings: young mice; cited from earlier work
[5] = tested on: human umbilical vein endothelial cells; settings: 15 mins of 1 μg/ml treatment; cited from earlier work
[6] = tested on: Intracellular cGMP; assay: Cyclic GMP ELISA; format: cell-based, mice; settings: p=0.001
Experimental: Assays for MTT and cGMP were performed as instructed by the kit. Briefly, MTT assays were performed following drug treatments. Cells were washed with PBS and incubated with RPMI media containing […] MTT solution. Cells were incubated at 37° C. for 4 hrs and lysed with […] solubilisation solution, 30 mins colour development followed and measured at 570 nm using a spectrophotometer. cGMP assays were also performed after drug treatments. Cells were washed with PBS and lysed with 0.1M HCl. Following sample collection the sample was acetylated and prepared with kit reagents. Samples were incubated for 18 hrs at 4° C. before examination at 410 nm with a spectrophotometer.

[7] = tested on: actin cytoskeleton of LSECs; assay: dSTORM imaging of the actin cytoskeleton; format: cell-based; settings: young mice
In short: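 LSECs fixed in 4% paraformaldehyde, permeabilised with Triton-X, blocked with 5% BSA and stained with Alexa Fluor 488 phalloidin, then imaged by dSTORM in OxEA buffer (up to 40,000 frames at ~75 fps). 5-8 whole-cell images per dose, collected blinded, were reconstructed and analysed for sieve plates, actin structures and densitometry.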

## COc1cc(CC(C)N)c(OC)cc1I (centres unmarked) [DOI, 2,5-Dimethoxy-4-iodoamphetamine]
[1]
  fenestrations after in vivo administration: increased fenestrations only in young (7 month) but not old (24 month) mice
[2]; old mice, 0.1 μg/ml
  Change in Frequency, Old: ↑ (ns)
  Diameter: 135.27 ± 29.71 nm
  Frequency: 3.06 ± 1.00 no/area
  Porosity: 4.44 ± 1.07 %
[2]; old mice, 1 μg/ml
  Diameter: 155.28 ± 15.33 nm
  Frequency: 0.67 ± 0.31 no/area
  Porosity: 1.31 ± 0.47%
[2]
  effect on porosity and fenestration frequency (summary in words): LSECs from old mice only were responsive
[2]; young mice, 0.1 μg/ml
  Diameter: 133.57 ± 9.78 nm
  Frequency: 3.40 ± 1.56 no/area
  Porosity: 4.91 ± 2.02%
[2]; young mice, 1 μg/ml
  Diameter: 135.64 ± 21.21 nm
  Frequency: 0.83 ± 0.75 no/area
  Porosity: 1.45 ± 1.27%
[3]; old mice, Cytochalasin D 0.5 μg/ml, DOI 0.1 μg/ml, 7KC 9 μM, Amlodipine 20 ng/ml
  change in fenestration porosity: increased porosity
[3]; old mice, Cytochalasin D 0.5 μg/ml, DOI 0.1 μg/ml, 7KC 9 μM, Bosentan 0.1 μM, Sildenafil 300 ng/ml, Amlodipine 20 ng/ml
  change in fenestration frequency: increased
[3]
  sieve plates and fenestration density on SEM images: maintained sieve plates and increased fenestration density
[4]
  fenestration porosity and diameter (previously reported): increase fenestration porosity in young mice without any significant effects on fenestration diameter

B1: Tumor necrosis factor-related apoptosis inducing ligand (protein, UniProt P50591 1-281, looked up)
Tumor necrosis factor ligand …: MAMMEVQGGPSLGQTCVLIVIFTVLLQSLCVAVTYVYFTNELKQMQDKYSKSGIACFLKEDDSYWDPNDEESMNSPCWQVKWQLRQLVRKMILRTSEETISTVQEKQQNISPLVRERGPQRVAAHITGTRGRSNTLSSPNSKNEKALGRKINSWESSRSGHSFLSNLHLRNGELVIHEKGFYYIYSQTYFRFQEEIKENTKNDKQMVQYIYKYTSYPDPILLMKSARNSCWSKDAEYGLYSIYQGGIFELKENDRIFVSVTNEHLIDMDHEASFFGAFLVG
notes: death receptor 4/5 promoter
[5]
  NOS and phosphorylated NOS: upregulate NOS and phosphorylated NOS
[6]
  increase of intracellular cGMP: 3 fold
[2]; old mice, 1 ng/ml
  Diameter: 127.50 ± 15.53 nm
  Frequency: 1.97 ± 0.49 no/area
  Porosity: 2.79 ± 0.14%
[2]; old mice, 10 ng/ml
  Diameter: 120.08 ± 3.74 nm
  Frequency: 2.13 ± 0.48 no/area
  Porosity: 2.85 ± 0.53%
[2]; old mice, 100 ng/ml
  Diameter: 130.88 ± 17.00 nm
  Frequency: 2.03 ± 0.53 no/area
  Porosity: 2.97 ± 0.46%
[2]
  effect on porosity and fenestration frequency (summary in words): LSECs from young mice only demonstrated significant increases in porosity and frequency
[2]; young mice
  dose response on fenestration porosity (words): did not promote greater changes in fenestration porosity or frequency; also recorded: had the greatest activity and similar maximal efficacy to NMN but was more potent; also recorded: limited dosage range for positive effects on fenestration porosity
  increase in fenestration frequency: 40%
  increase in porosity: 60%
[2]; young mice, 1 ng/ml
  Diameter: 137.95 ± 8.12 nm
  Frequency: 4.47 ± 0.43 no/area
  Porosity: 7.17 ± 1.49 %
[2]; young mice, 10 ng/ml
  Change in Porosity, Young: ↑ (ns)
  Diameter: 140.36 ± 3.22 nm
  Frequency: 3.73 ± 0.46 no/area
  Porosity: 6.24 ± 0.52 %
[2]; young mice, 100 ng/ml
  Diameter: 145.87 ± 6.77 nm
  Frequency: 3.15 ± 0.27 no/area
  Porosity: 5.49 ± 0.63%
[2]; young mice, sildenafil 0.3 μg/ml, amlodipine 20 ng/ml, TRAIL 1 ng/ml
  fenestration numbers, fenestrated cell area and sieve plate formation: increased fenestration numbers and overall fenestrated cell area with some disruption to sieve plate formation
[7]
  actin changes with drug treatments (dSTORM): absence of the intense actin clustering; also recorded: Disordered actin structure; also recorded: Gap formations; also recorded: Minimal actin clustering
[3]; old mice
  sieve plate grouping on SEM images: greater fenestration sieve plate grouping
[3]; old mice, 1 μg/ml
  fenestration porosity: 2.7±0.1%
[3]; old mice, 7KC 4.5 μM, Bosentan 0.1 μM, Sildenafil 300 ng/ml
  change in fenestration diameter: No changes in diameter
[3]
  sieve plates and fenestration density on SEM images: promoted increased fenestration density and maintained sieve plate fenestration clustering
[3]; young mice, 1 μg/ml
  fenestration frequency: 4.5±0.4 number/μm^2
  fenestration porosity: 7.2±1.5%
[3]; young mice, Bosentan 0.1 μM, Sildenafil 300 ng/ml
  change in fenestration diameter: No changes in diameter
